These results are taken from paper PMC13630248 (PLOS Biology, 2026).

Test [1] addresses RpYN06 Spike, full-length, on the cell surface (Betacoronavirus sp. RpYN06, strain …, strain). In words: flow cytometry on cells. Particulars: one partner purified. In general terms: A flow cytometer gives signals particle by particle.
Test [2] has as its target T1, SARS-CoV-2 RBD (recombinant receptor binding domain of Spike) (SARS-CoV-2, UniProt P0DTC2). In words: ELISA. The conditions noted are these: both partners purified.
In test [3] the target is T1, SARS-CoV-2 RBD (recombinant receptor …). As to the kind of experiment: SPR. Particulars: both partners purified.

B1: V1WT_06 IgG (antibody, V domains shown)
VH: EVQLVQSGAEVKKPGASVKVSCKASGYTFSSHGISWVRQAPGQGLEWMGWISTYNGNTNSAQNLQGRVTMTADTSTSTAYMELRSLRSDDTAVYYCARGPWGYCSGTSCYYWTPDNPAYSYHGMDVWGQGTTVTVSS
VL: not shown
notes: copies: 2 + 2
Consider B1, for which, in test [1], the binding result was “binds”.

B2: V1WT_06 Fab (Fab, V domains shown)
VH: EVQLVQSGAEVKKPGASVKVSCKASGYTFSSHGISWVRQAPGQGLEWMGWISTYNGNTNSAQNLQGRVTMTADTSTSTAYMELRSLRSDDTAVYYCARGPWGYCSGTSCYYWTPDNPAYSYHGMDVWGQGTTVTVSS
VL: not shown
Consider B2, for which the binding result in test [2] is on record as “binds”.

B3: VA14_26 IgG (antibody, V domains shown)
VH: QVQLQQWGAGLLKPSDTLSLTCGISGGPFSGYYWSWIRQPPGKGLEWLGEINHSGITTYNPSLKSRGTISVDTSKRQISLKLASVTAADTAVYYCARFAYGDYGWDYSSDMDVWGKGTTVTVSS
VL: DIQLTQSPSTLSASVGDRVTITCRASQSISTWLAWHQQIPGKAPKLLIYRASTLQSGVPSRFSGSGSGTEFTLTISSLQPDDFATYYCQQYYSVRTFGQGTKVDIK
notes: copies: 2 + 2
As for B3, the binding result in test [1] and in test [3] was “binds” in each case.

B4: V1WT_41 IgG (antibody, V domains shown)
VH: QVQLQESGPGLVKPSETVSVTCTVSGGSITRSNYYWGWIRQPPGKGLEWIGSIFYNGNTNYNPSLKSRLTISVDTSKNQFSLKLSSVTAADTAVYYCARTAPYYYDRSGYYQKEEYFQRWGQGTLVTVSS
VL: EIVMTQSPSTLSASVGDRVTITCRASQSISTWLAWYQQKPGKAPNLLIYQASSLESGVPSRFSGSGSGTEFTLTISSLQPDDFATYYCQQYNNYPRTFGQGTKLEIK
notes: copies: 2 + 2
Take B4: the binding result in test [2] and in test [1] was “binds” throughout.
